{
  "source": "paper PMC3116811",
  "about": "(PLoS Pathogens, 2011)",
  "binders": {"B1": {"name": "purified soluble AnTat1.1 VSG (variant-specific surface glycoprotein of Trypanosoma brucei AnTat1.1) (natural protein)", "chain": "QTAGRPLADVVGKTLCTYSKTAKRQAANLAQTLQRASSAAKQSRQAQQLAALALAKLPDYKEAAATLLIYATHKIQDAQASIENWTGENTKLVGQAMYSSGRIDELMLLLEGHREDGANGQDKTCLGAAAGGNTVNEFVKTECDTESGHNIEADNSNIGQAATTLSQESTDPEASGGASCKITANLATDYDSHANELPLLGGLLTIHNAGGFKTGQSLQTAAPTNKLISALKNKGAGVAAKLATVTSAAPTSKQELKTLLASKGERAKLQAANDEYNNWKPGAKPEDFDAHIKKVFGAEDGKDSAYAIALEGISIEAPLGGGQTQNKQLYSMQPKDLMAALIGTIAELQTAAATKPACPGHKQTTTESDALCSKIKDANECNSKHFCSYNGTETDSAKKCKYNATKASASDAPVTQAQTTSRSETPAEKCTGKKKDDCKDGCKWEAETCKD"}},
  "target": "T1, chimeric Nb_An05-Fc HCAb (Nb_An05 fused to the hinge and Fc-domain of human IgG1) (camelid)",
  "T1 construct": "also called synthetic HCAb; reconstituted HCAb; not shown: Fc (human IgG1, including the hinge), C-terminal, kept",
  "assay": "ELISA; format not told; Nb_An05-Fc HCAb on the VSG antigen",
  "conditions": "both partners purified",
  "data": [
    {"binder": "B1", "values": [
      {"measurement": "binding result", "value": "binds"}
    ]}
  ]
}
